Consider five molecules from patent US20200369754A1 (Janssen / Centocor, published 2020).

Assay [1] deals with T1, Aggregated recombinant 2N4R tau (rTau) (human, UniProt P10636 2-758, covalently labelled with pHrodo Green STP Ester).
T1 construct: Full-length huTau441 expressed in E. coli, in aggregated form; also called rTau aggregates; tau aggregates
Kind of assay: uptake of pHrodo-labelled rTau immunocomplexes by BV2 cells, flow cytometry. The procedure: In each experiment a mouse IgG1 isotype control was included together with cells incubate with only aggregated rTau.
Immunocomplexes were incubated over night at 4° C. and the day after applied to BV2 cells for 2 hours at 37° C. with 5% CO2. After incubation cells were harvested with 0.25% trypsin-EDTA for 20 min thus simultaneously removing Tau bound to the extracellular membrane, centrifuged at 400 rcf to remove medium removed, washed twice with PBS and resuspended in flow cytometry buffer (PBS 1× plus 0.5% BSA and 2 mM EDTA). Cells were analyzed with a Canto II flow cytometer (BD) gating for live single cell population, as identified by forward and side scatter profiles. Each experiment was conducted in duplicate.
For orientation: In flow cytometry, cells or beads pass a laser one at a time.

The target of another assay is T2, Tau peptide A6940 (human, biotin (bound via biotin to a streptavidin biosensor in the Octet assay; position of the biotin not stated)).
T2 construct: Biotinylated in the Octet assay; also called cognate Tau peptide A6940
T2 peptide: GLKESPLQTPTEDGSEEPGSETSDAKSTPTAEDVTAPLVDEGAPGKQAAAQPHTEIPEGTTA
Put plainly: ITC, tau peptide 20 uM titrated with IgG 200 uM, PBS pH 7.4, one set of sites model. The procedure: Affinities of the novel antibodies were determined using a Microcal Auto-iTC200 isothermal titration calorimeter (Malvern). […] Data was fitted according to a one set of sites model using Microcal PEAQ-ITC Analysis Software (Malvern).
The continuous lines represent the fit of the data to a “one set of binding sites” model.

The Kd is a measure of binding affinity in units of concentration. Read a low Kd as tighter binding.

T1 sequence (P10636 other isoform, or with tags, fused parts or gaps limits assumed): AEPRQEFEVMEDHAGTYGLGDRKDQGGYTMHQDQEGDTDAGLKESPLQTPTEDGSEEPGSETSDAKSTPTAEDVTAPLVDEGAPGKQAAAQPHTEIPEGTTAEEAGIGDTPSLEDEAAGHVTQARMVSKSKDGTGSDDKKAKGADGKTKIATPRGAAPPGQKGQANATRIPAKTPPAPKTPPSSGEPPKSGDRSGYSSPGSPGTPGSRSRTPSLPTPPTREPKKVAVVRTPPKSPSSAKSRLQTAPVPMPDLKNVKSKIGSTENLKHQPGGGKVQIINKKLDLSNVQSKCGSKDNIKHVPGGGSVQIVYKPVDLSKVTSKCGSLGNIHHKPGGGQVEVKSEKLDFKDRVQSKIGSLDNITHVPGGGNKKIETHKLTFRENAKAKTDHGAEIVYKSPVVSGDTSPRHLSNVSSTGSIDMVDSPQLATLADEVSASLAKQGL

B1: CBTAU-28.1 (I50M[VH];Y52W[VH];S103W[VH];S32R[VL];E35K[VL]) (antibody, V domains shown)
VH: QVQLQQSGAEVKKPGESLKISCEASGYSFTNYWIGWVRQMPGKGLEWMGMIWPGDSDTRYSPPFQGQVTITADRSITTAYLEWSSLKASDTAMYYCARVGRPWKGGWFDPWGQGTLVTVSS
VL: DIQMTQSPDSLAVSLGERATINCESSQTLLYRSNKKNYLAWYQQKPGQPPKLLISWASTPESGVPDRFSGSGSGTSFTLTISSLQAEDVAVYYCQQYYNSPYTFGQGTRLEIK
Turning to B1, the binding result in assay [1] was “binds”. Also, the Kd in the assay with Tau peptide A6940 worked out at 67 nM.

B2: CBTAU-28.1 (I50M[VH];Y52W[VH];S103F[VH];Y31W[VL];N99H[VL]) (antibody, V domains shown)
VH: QVQLQQSGAEVKKPGESLKISCEASGYSFTNYWIGWVRQMPGKGLEWMGMIWPGDSDTRYSPPFQGQVTITADRSITTAYLEWSSLKASDTAMYYCARVGRPFKGGWFDPWGQGTLVTVSS
VL: DIQMTQSPDSLAVSLGERATINCESSQTLLWSSNEKNYLAWYQQKPGQPPKLLISWASTPESGVPDRFSGSGSGTSFTLTISSLQAEDVAVYYCQQYYHSPYTFGQGTRLEIK
As to B2, in assay [1], the binding result is on record as “binds”. This molecule also yielded an equilibrium dissociation constant (Kd) with Tau peptide A6940 of 45 nM.

B3: CBTAU-28.1 (I50M[VH];Y52W[VH];S103F[VH];S32R[VL];E35K[VL]) (antibody, V domains shown)
VH: QVQLQQSGAEVKKPGESLKISCEASGYSFTNYWIGWVRQMPGKGLEWMGMIWPGDSDTRYSPPFQGQVTITADRSITTAYLEWSSLKASDTAMYYCARVGRPFKGGWFDPWGQGTLVTVSS
VL: DIQMTQSPDSLAVSLGERATINCESSQTLLYRSNKKNYLAWYQQKPGQPPKLLISWASTPESGVPDRFSGSGSGTSFTLTISSLQAEDVAVYYCQQYYNSPYTFGQGTRLEIK
For B3, the binding result in assay [1] was “binds”. This molecule gave a dissociation constant (Kd) in the assay with Tau peptide A6940 of 63 nM.

B4: CBTAU-28.1 (S32R[VL];E35K[VL]) (antibody, V domains shown)
VH: QVQLQQSGAEVKKPGESLKISCEASGYSFTNYWIGWVRQMPGKGLEWMGIIYPGDSDTRYSPPFQGQVTITADRSITTAYLEWSSLKASDTAMYYCARVGRPSKGGWFDPWGQGTLVTVSS
VL: DIQMTQSPDSLAVSLGERATINCESSQTLLYRSNKKNYLAWYQQKPGQPPKLLISWASTPESGVPDRFSGSGSGTSFTLTISSLQAEDVAVYYCQQYYNSPYTFGQGTRLEIK
Regarding B4, in assay [1], the binding result was “binds”.

B5: CBTAU-28.1 (I50M[VH];Y52W[VH];S103W[VH];Y31W[VL];N99H[VL]) (antibody, V domains shown)
VH: QVQLQQSGAEVKKPGESLKISCEASGYSFTNYWIGWVRQMPGKGLEWMGMIWPGDSDTRYSPPFQGQVTITADRSITTAYLEWSSLKASDTAMYYCARVGRPWKGGWFDPWGQGTLVTVSS
VL: DIQMTQSPDSLAVSLGERATINCESSQTLLWSSNEKNYLAWYQQKPGQPPKLLISWASTPESGVPDRFSGSGSGTSFTLTISSLQAEDVAVYYCQQYYHSPYTFGQGTRLEIK
B5: the binding result in assay [1] is reported as “binds”. For the same molecule, the affinity with Tau peptide A6940, expressed as Kd, was 57 nM.
